For three proteins, Km, kcat and kcat/Km results are on record in publication PMC4861830, “Isolation and Characterization of Three New Monoterpene Synthases from Artemisia annua” (Frontiers in Plant Science, 2016).

Substrate in the series: CC(C)=CCC/C(C)=C/COP(=O)(O)OP(=O)(O)O
The series is described as follows: purified protein. Format: biochemical, Artemisia annua. Conditions: Mg2+ (5 mM MgCl2), 25 mM HEPES pH 7.0, 5 mM DTT, 30 °C, GPP 3-100 μM.

The mark [1] stands for this setting: Table 1 prints 19.74 (text and table disagree; printed kcat/Km 7.66 × 10^4 fits 19.47).

B1: AaTPS2 (Artemisia annua) (protein)
chain: VRRTANYEPTLWSYDHIQSLSSKYTGEEYAARANILKNSVKRLLGEVENSPSILELVNDLQRLGIYYHFEDEIRNALEMIYYKYYKTPDKWGKMDLNLTALGFRLLRQHGYQVPQEIFQNFLDNAQNLKPHLLEEIAGMLNLYEASYHAFEDETILDNARAFTTKYLKENLDKIDGHILSLVSHALEFPLHWRVPRVEAKWYIEVYEKKNGMNHILIELAKLDFDMVQAIHLEDLKHASRWWRNTNWDKKLSFARDRLVENFLWTIGFNYLPQFSHGRRTLTKVNALITTIDDVYDVFGTLDEIEQFTDATNRWDINSIEELPDYMKICFLGFYNTINEITYNALTNKRFIILPYLKKAWGDLFKSFVVEANWYQSGHIPTLEEYLENGCISISGPVILMHVHFITSISSAEEIMQCMEISKDIVRYSSLIFRLTDDLGTSSGEMERGDNPKSLQCYMHETGASEDEARIYMKSLIGETWKKLNKERTHASSDITREFIDFATNLVRMAQFMYGEGDVHGRPDVTKSHVLSLLFNPIQEI
notes: N-terminal 46-residue plastid signal peptide removed (before RR motif; full length 586 residues); pET-32a fusion tag kept; E. coli BL21(DE3); Ni-NTA
Take B1: the Km was 8.25 µM, the kcat was found to be 0.52 s⁻¹ and the kcat/Km was found to be 63100 M⁻¹ s⁻¹.

B2: AaTPS5 (Artemisia annua) (protein)
chain: IRRSAGYPPSLWPYERIQAINSIYTGEKYASRLETLKEEVRNMIYKENEKAENPLSTLNLVDDLQRLGIWYHFVDDINNVLDNVYNKYYKSPEKWNTLDLNLKALGFRLLRHNGYHITQDIFEDIQDETRIMGHTIEDTLGLLNLYEASYHSFEDENILDEARAFTKKYLQGSLGKIDDQYLSSLTSRALDMPLHWRIARVETIWFMEAYEKRSGMNPTVLDLAKLDFNMVQAVHQEDLKYASRWWRTTKWDDKLSFARDRLVENYMWTIGNSYRPQFTLLRRILTKVFAIITTVDDVYDVHGTLDELERFTDVISRWNIYAIEELPDYMKICFLGFYNSVNDMAYTTLTDTGFFILPYLQKAWEDLCKAYLVEARWYHTKYMPTFKEYLDIAEVSISVPLMLTHISFVMNVCSTEEVIQSMDKIKNLIRYSSQILRLADDLGTSSDEMARGDTPKSIQCYMHETGATEEEARAHVRSLIIKVWQKLNKERAGLKTTYLKEFGECAANFGRMAQFMYQVADGHGHNIDLTEAYVLSLVVNPIQGV
notes: N-terminal 57-residue plastid signal peptide removed (before RR motif; full length 602 residues); pET-32a fusion tag kept; E. coli BL21(DE3); Ni-NTA
As to B2, under setting [1], the Michaelis-Menten constant (Km) is 19.47 µM and the kcat is 1.49 s⁻¹.

B3: AaTPS6 (Artemisia annua) (protein)
chain: GRRSANYEPSLWSFDHVQSLSSKYTGKNYVSRADSLKKIVKTMIHEVGNPSTALELVDDLQRLGIWYHFEDEISNVLEMIYRDFYDNEDRCSKMDMNFKALSFRLLRQHGYHVPQEIFHNFKEKTQNLKPYLHEDMVVMLNIYEASYYSYEDESIMDDARDFTAKYLKENHDSIDESISSLVSHALEFPLHWRIPREEAKWFIEFYEKRSGRNPTLIELAKLDFNMVQSIHLEDLKHASRWWRNTCWDKELPFARDRLMENFLWTVGVNYLPRFSLGRRTLTKVNAMITTIDDVYDVFGTIDELEKFTEVTNRWDINAVEELPDYMQICFIAFYNSINEIAYNTLTDTKFLILQYLKKGWVDLCNSYLKEAQWYESGYVPTLEEYLENAYVSISAPVILTHVNFLTTITSKEEILQFMETSDNIVRYSSLILRLADDLGTSSLEMARGDVPKSIQCYMHESGASEDEARMHIKDLILETWKKFNKEREHVKSKIAREFTYCAMNLGRMAQFMYREGDGHGHLSDVTKSHVLSWLINPIQGM
notes: N-terminal 46-residue plastid signal peptide removed (before RR motif; full length 587 residues); pET-32a fusion tag kept; E. coli BL21(DE3); Ni-NTA
Consider B3, for which the Km stood at 17.70 µM, the kcat was determined as 4.46 s⁻¹ and the kcat/Km turned out to be 252000 M⁻¹ s⁻¹.

In general, Km refers to the concentration of substrate that gives half-maximal velocity. By kcat is commonly meant the number of substrate molecules converted per active site and unit of time at saturation. As usually defined, the kcat/Km is the second-order rate constant that governs catalysis at low substrate concentration.
